In paper PMC12830800:

Target: Coxsackievirus A6 (CVA6) strain 54203/HeB/CHN/2012 mature virion (coxsackievirus A6 strain 54203/HeB/CHN/2012)

B1: His-tagged human KRM1 ectodomain (residues A23-G373) (domain or fragment)
chain: APSPGLGPECFTANGADYRGTQNWTALQGGKPCLFWNETFQHPYNTLKYPNGEGGLGEHNYCRNPDGDVSPWCYVAEHEDGVYWKYCEIPACQMPGNLGCYKDHGNPPPLTGTSKTSNKLTIQTCISFCRSQRFKFAGMESGYACFCGNNPDYWKYGEAASTECNSVCFGDHTQPCGGDGRIILFDTLVGACGGNYSAMSSVVYSPDFPDTYATGRVCYWTIRVPGASHIHFSFPLFDIRDSADMVELLDGYTHRVLARFHGRSRPPLSFNVSLDFVILYFFSDRINQAQGFAVLYQAVKEELPQERPAVNQTVAEVITEQANLSVSAARSSKVLYVITTSPSHPPQTVPG
For B1, the share of A-particles among the particles after incubation of virions with KRM1 ectodomain (1:120, 35 min, room temperature; cryo-EM classification); none in the untreated sample was 69.8%.
